Literature values in paper PMC7674454.

Biological target: calbindin D9k EF2 EF-hand 2 (Bos taurus) (UniProt P02633)
Assay: SPR

calbindin D9k EF1 EF-hand 1 (from UniProt P02633)
Kd: 3 pM
